# According to paper PMC3426363 (Pharmaceutical research, 2011):
# Columns and labels:
# Type in all cases: in vitro ADME, human
# UGT1A isoforms = conditions: across the UGT1A isoforms used (Tab.S1)
# [1] = substrate: O=c1c(O)c(-c2ccccc2)oc2cc(O)ccc12; assay: UGT1A7 glucuronidation kinetics of flavonols; conditions: other: UGT1A7, pH 6.5
# [2] = substrate: O=c1c(O)c(-c2ccccc2)oc2cc(O)cc(O)c12; assay: UGT1A7 glucuronidation kinetics of flavonols; conditions: other: UGT1A7, pH 6.5
# [3] = substrate: O=c1c(O)c(-c2ccc(O)cc2)oc2cc(O)cc(O)c12; assay: UGT1A7 glucuronidation kinetics of flavonols; conditions: other: UGT1A7, pH 6.5
# [4] = substrate: O=c1c(O)c(-c2ccccc2)oc2cc(O)ccc12; assay: UGT1A10 glucuronidation kinetics of flavonols; conditions: other: UGT1A10, pH 6.5
# [5] = substrate: O=c1c(O)c(-c2ccccc2)oc2cc(O)cc(O)c12; assay: UGT1A10 glucuronidation kinetics of flavonols; conditions: other: UGT1A10, pH 6.5
# [6] = substrate: O=c1c(O)c(-c2ccc(O)cc2)oc2cc(O)cc(O)c12; assay: UGT1A10 glucuronidation kinetics of flavonols; conditions: other: UGT1A10, pH 6.5
# [7] = substrate: O=c1c(O)c(-c2ccccc2)oc2cc(O)ccc12; assay: UGT1A8 glucuronidation kinetics of flavonols; conditions: other: UGT1A8, pH 6.5
# [8] = substrate: O=c1c(O)c(-c2ccccc2)oc2cc(O)cc(O)c12; assay: UGT1A8 glucuronidation kinetics of flavonols; conditions: other: UGT1A8, pH 6.5
# [9] = substrate: O=c1c(O)c(-c2ccc(O)cc2)oc2cc(O)cc(O)c12; assay: UGT1A8 glucuronidation kinetics of flavonols; conditions: other: UGT1A8, pH 6.5
# [10] = substrate: O=c1c(O)c(-c2ccccc2)oc2cc(O)ccc12; assay: UGT1A9 glucuronidation kinetics of flavonols; conditions: other: UGT1A9, pH 6.5
# [11] = substrate: O=c1c(O)c(-c2ccc(O)cc2)oc2cc(O)ccc12; assay: UGT1A9 glucuronidation kinetics of flavonols; conditions: other: UGT1A9, pH 6.5
# [12] = substrate: O=c1c(O)c(-c2ccc(O)cc2)oc2cc(O)cc(O)c12; assay: UGT1A9 glucuronidation kinetics of flavonols; conditions: other: UGT1A9, pH 6.5
molecule,measurement,setting,value
"COc1cc(O)c2c(=O)cc(-c3ccccc3)oc2c1 [5H7MF, 5-hydroxy-7-methoxyflavone]",glucuronidation rate,UGT1A isoforms,≤ 0.9 nmol/mg/min
"O=c1cc(-c2ccc(O)cc2)oc2ccccc12 [4’HF, 4'-hydroxyflavone]",glucuronidation rate,UGT1A isoforms,≤ 0.9 nmol/mg/min
"O=c1cc(-c2ccccc2)oc2cccc(O)c12 [5HF, 5-hydroxyflavone]",glucuronidation rate,UGT1A isoforms,≤ 0.9 nmol/mg/min
"COc1cccc2oc(-c3ccc(O)cc3)cc(=O)c12 [4’H5MF, 4'-hydroxy-5-methoxyflavone]",glucuronidation rate,UGT1A isoforms,≤ 0.9 nmol/mg/min
"O=c1cc(-c2ccc(O)cc2)oc2cccc(O)c12 [5,4’DHF, 5,4'-dihydroxyflavone]",glucuronidation rate,UGT1A isoforms,≤ 0.9 nmol/mg/min
"COc1cc(O)c2c(=O)cc(-c3ccc(O)cc3)oc2c1 [5,4’DH7MF, 5,4'-dihydroxy-7-methoxyflavone]",glucuronidation rate,UGT1A isoforms,≤ 0.9 nmol/mg/min
"COc1ccc2oc(-c3ccc(O)cc3)cc(=O)c2c1 [4’H6MF, 4'-hydroxy-6-methoxyflavone]",glucuronidation rate,UGT1A isoforms,≤ 0.9 nmol/mg/min
"COc1ccc2c(=O)cc(-c3ccc(O)cc3)oc2c1 [4’H7MF, 4'-hydroxy-7-methoxyflavone]",glucuronidation rate,UGT1A isoforms,≤ 0.9 nmol/mg/min
UGT1A7 (Homo sapiens) (protein) GKLLVVPMDGSHWFTMQSVVEKLILRGHEVVVVMPEVSWQLGRSLNCTVKTYSTSYTLEDQDREFMVFADARWTAPLRSAFSLLTSSSNGIFDLFFSNCRSLFNDRKLVEYLKESCFDAVFLDPFDACGLIVAKYFSLPSVVFARGIFCHYLEEGAQCPAPLSYVPRLLLGFSDAMTFKERVWNHIMHLEEHLFCPYFFKNVLEIASEILQTPVTAYDLYSHTSIWLLRTDFVLEYPKPVMPNMIFIGGINCHQGKPVPMEFEAYINASGEHGIVVFSLGSMVSEIPEKKAMAIADALGKIPQTVLWRYTGTRPSNLANNTILVKWLPQNDLLGHPMTRAFITHAGSHGVYESICNGVPMVMMPLFGDQMDNAKRMETKGAGVTLNVLEMTSEDLENALKAVINDKSYKENIMRLSSLHKDRPVEPLDLAVFWVEFVMRHKGAPHLRPAAHDLTWYQYHSLDVIGFLLAVVLTVAFITFKCCAYGYRKCLGKKGRVKKAHKSKTH,Km,[1]; formation of 3-O-glucuronide,1.61 ± 0.14 µM
same,Vmax,[1]; formation of 3-O-glucuronide,2.04 ± 0.07 nmol/mg/min
same,Vmax/Km,[1]; formation of 3-O-glucuronide,1270 µL/min/mg
same,Km,[1]; formation of 7-O-glucuronide,23.17 ± 6.96 µM
same,Vmax,[1]; formation of 7-O-glucuronide,0.44 ± 0.07 nmol/mg/min
same,Vmax/Km,[1]; formation of 7-O-glucuronide,20 µL/min/mg
same,Km,[2]; formation of 3-O-glucuronide,0.82 ± 0.08 µM
same,Vmax,[2]; formation of 3-O-glucuronide,3.35 ± 0.11 nmol/mg/min
same,Km,[2]; formation of 7-O-glucuronide,21.43 ± 6.09 µM
same,Vmax,[2]; formation of 7-O-glucuronide,2.46 ± 0.34 nmol/mg/min
same,Vmax/Km,[2]; formation of 7-O-glucuronide,110 µL/min/mg
same,Km,[3]; formation of 3-O-glucuronide,1.46 ± 0.32 µM
same,Vmax,[3]; formation of 3-O-glucuronide,0.77 ± 0.04 nmol/mg/min
same,Vmax/Km,[3]; formation of 3-O-glucuronide,530 µL/min/mg
same,Km,[3]; formation of 7-O-glucuronide,11.56 ± 2.91 µM
same,Vmax,[3]; formation of 7-O-glucuronide,1.10 ± 0.11 nmol/mg/min
same,Vmax/Km,[3]; formation of 7-O-glucuronide,100 µL/min/mg
UGT1A10 (Homo sapiens) (protein) GKLLVVPMDGSHWFTMQSVVEKLILRGHEVVVVMPEVSWQLERSLNCTVKTYSTSYTLEDQNREFMVFAHAQWKAQAQSIFSLLMSSSSGFLDLFFSHCRSLFNDRKLVEYLKESSFDAVFLDPFDTCGLIVAKYFSLPSVVFTRGIFCHHLEEGAQCPAPLSYVPNDLLGFSDAMTFKERVWNHIVHLEDHLFCQYLFRNALEIASEILQTPVTAYDLYSHTSIWLLRTDFVLDYPKPVMPNMIFIGGINCHQGKPLPMEFEAYINASGEHGIVVFSLGSMVSEIPEKKAMAIADALGKIPQTVLWRYTGTRPSNLANNTILVKWLPQNDLLGHPMTRAFITHAGSHGVYESICNGVPMVMMPLFGDQMDNAKRMETKGAGVTLNVLEMTSEDLENALKAVINDKSYKENIMRLSSLHKDRPVEPLDLAVFWVEFVMRHKGAPHLRPAAHDLTWYQYHSLDVIGFLLAVVLTVAFITFKCCAYGYRKCLGKKGRVKKAHKSKTH,Km,[4]; formation of 3-O-glucuronide,6.66 ± 0.66 µM
same,Vmax,[4]; formation of 3-O-glucuronide,0.19 ± 0.01 nmol/mg/min
same,Vmax/Km,[4]; formation of 3-O-glucuronide,30 µL/min/mg
same,Km,[4]; formation of 7-O-glucuronide,8.74 ± 1.37 µM
same,Vmax,[4]; formation of 7-O-glucuronide,0.26 ± 0.02 nmol/mg/min
same,Vmax/Km,[4]; formation of 7-O-glucuronide,30 µL/min/mg
same,Km,[5]; formation of 3-O-glucuronide,4.49 ± 0.61 µM
same,Vmax,[5]; formation of 3-O-glucuronide,2.01 ± 0.14 nmol/mg/min
same,Vmax/Km,[5]; formation of 3-O-glucuronide,450 µL/min/mg
same,Km,[5]; formation of 7-O-glucuronide,3.96 ± 0.58 µM
same,Vmax,[5]; formation of 7-O-glucuronide,0.77 ± 0.04 nmol/mg/min
same,Vmax/Km,[5]; formation of 7-O-glucuronide,190 µL/min/mg
same,Km,[6]; formation of 3-O-glucuronide,2.44 ± 0.55 µM
same,Vmax,[6]; formation of 3-O-glucuronide,1.46 ± 0.16 nmol/mg/min
same,Vmax/Km,[6]; formation of 3-O-glucuronide,600 µL/min/mg
same,Km,[6]; formation of 7-O-glucuronide,3.34 ± 1.21 µM
same,Vmax,[6]; formation of 7-O-glucuronide,1.10 ± 0.20 nmol/mg/min
same,Vmax/Km,[6]; formation of 7-O-glucuronide,330 µL/min/mg
UGT1A8 (Homo sapiens) (protein) GKLLVVPMDGSHWFTMQSVVEKLILRGHEVVVVMPEVSWQLGKSLNCTVKTYSTSYTLEDLDREFMDFADAQWKAQVRSLFSLFLSSSNGFFNLFFSHCRSLFNDRKLVEYLKESSFDAVFLDPFDACGLIVAKYFSLPSVVFARGIACHYLEEGAQCPAPLSYVPRILLGFSDAMTFKERVRNHIMHLEEHLFCQYFSKNALEIASEILQTPVTAYDLYSHTSIWLLRTDFVLDYPKPVMPNMIFIGGINCHQGKPLPMEFEAYINASGEHGIVVFSLGSMVSEIPEKKAMAIADALGKIPQTVLWRYTGTRPSNLANNTILVKWLPQNDLLGHPMTRAFITHAGSHGVYESICNGVPMVMMPLFGDQMDNAKRMETKGAGVTLNVLEMTSEDLENALKAVINDKSYKENIMRLSSLHKDRPVEPLDLAVFWVEFVMRHKGAPHLRPAAHDLTWYQYHSLDVIGFLLAVVLTVAFITFKCCAYGYRKCLGKKGRVKKAHKSKTH,Km,[7]; formation of 3-O-glucuronide,8.68 ± 1.21 µM
same,Vmax,[7]; formation of 3-O-glucuronide,0.76 ± 0.04 nmol/mg/min
same,Vmax/Km,[7]; formation of 3-O-glucuronide,90 µL/min/mg
same,Km,[7]; formation of 7-O-glucuronide,27.32 ± 7.50 µM
same,Vmax,[7]; formation of 7-O-glucuronide,0.65 ± 0.10 nmol/mg/min
same,Vmax/Km,[7]; formation of 7-O-glucuronide,20 µL/min/mg
same,Km,[8]; formation of 3-O-glucuronide,6.44 ± 1.28 µM
same,Vmax,[8]; formation of 3-O-glucuronide,3.89 ± 0.47 nmol/mg/min
same,Vmax/Km,[8]; formation of 3-O-glucuronide,600 µL/min/mg
same,Km,[8]; formation of 7-O-glucuronide,4.88 ± 1.14 µM
same,Vmax,[8]; formation of 7-O-glucuronide,0.79 ± 0.57 nmol/mg/min
same,Vmax/Km,[8]; formation of 7-O-glucuronide,160 µL/min/mg
same,Km,[9]; formation of 3-O-glucuronide,2.39 ± 0.47 µM
same,Vmax,[9]; formation of 3-O-glucuronide,0.74 ± 0.04 nmol/mg/min
same,Vmax/Km,[9]; formation of 3-O-glucuronide,310 µL/min/mg
same,Km,[9]; formation of 7-O-glucuronide,6.77 ± 1.78 µM
same,Vmax,[9]; formation of 7-O-glucuronide,1.01 ± 0.09 nmol/mg/min
same,Vmax/Km,[9]; formation of 7-O-glucuronide,150 µL/min/mg
UGT1A9 (Homo sapiens) (protein) GKLLVVPMDGSHWFTMRSVVEKLILRGHEVVVVMPEVSWQLGRSLNCTVKTYSTSYTLEDLDREFKAFAHAQWKAQVRSIYSLLMGSYNDIFDLFFSNCRSLFKDKKLVEYLKESSFDAVFLDPFDNCGLIVAKYFSLPSVVFARGILCHYLEEGAQCPAPLSYVPRILLGFSDAMTFKERVRNHIMHLEEHLLCHRFFKNALEIASEILQTPVTEYDLYSHTSIWLLRTDFVLDYPKPVMPNMIFIGGINCHQGKPLPMEFEAYINASGEHGIVVFSLGSMVSEIPEKKAMAIADALGKIPQTVLWRYTGTRPSNLANNTILVKWLPQNDLLGHPMTRAFITHAGSHGVYESICNGVPMVMMPLFGDQMDNAKRMETKGAGVTLNVLEMTSEDLENALKAVINDKSYKENIMRLSSLHKDRPVEPLDLAVFWVEFVMRHKGAPHLRPAAHDLTWYQYHSLDVIGFLLAVVLTVAFITFKCCAYGYRKCLGKKGRVKKAHKSKTH,Km,[10]; formation of 3-O-glucuronide,0.22 ± 0.04 µM
same,Vmax,[10]; formation of 3-O-glucuronide,4.60 ± 0.28 nmol/mg/min
same,Vmax/Km,[10]; formation of 3-O-glucuronide,20910 µL/min/mg
same,Km,[10]; formation of 7-O-glucuronide,1.50 ± 0.26 µM
same,Vmax,[10]; formation of 7-O-glucuronide,2.04 ± 0.09 nmol/mg/min
same,Vmax/Km,[10]; formation of 7-O-glucuronide,1360 µL/min/mg
same,Km,[11]; formation of 3-O-glucuronide,0.36 ± 0.03 µM
same,Vmax,[11]; formation of 3-O-glucuronide,2.62 ± 0.05 nmol/mg/min
same,Vmax/Km,[11]; formation of 3-O-glucuronide,7280 µL/min/mg
same,Km,[11]; formation of 7-O-glucuronide,2.67 ± 0.56 µM
same,Vmax,[11]; formation of 7-O-glucuronide,1.15 ± 0.08 nmol/mg/min
same,Vmax/Km,[11]; formation of 7-O-glucuronide,430 µL/min/mg
same,Km,[12]; formation of 3-O-glucuronide,0.32 ± 0.03 µM
same,Vmax,[12]; formation of 3-O-glucuronide,1.92 ± 0.03 nmol/mg/min
same,Vmax/Km,[12]; formation of 3-O-glucuronide,6000 µL/min/mg
same,Km,[12]; formation of 7-O-glucuronide,3.87 ± 0.59 µM
same,Vmax,[12]; formation of 7-O-glucuronide,0.87 ± 0.05 nmol/mg/min
same,Vmax/Km,[12]; formation of 7-O-glucuronide,220 µL/min/mg
